Values joined by “and” are separate entries in the source; they are usually repeats but may differ in a detail not shown here. Equal entries are not always repeated.
Experiments:
[1] = biological target: T1, human ROR1 (human, UniProt Q01973 30-937); assay: flow cytometry on ROR1-positive RPMI8226 cells
T1 construct: whole, on cells; Endogenous ROR1 on ROR1-positive cells; also called tyrosine-protein kinase transmembrane receptor ROR1; neurotrophic tyrosine kinase, receptor-related 1
Method: a) Anti-ROR1 antibodies coming either from the immunization approach and/or from the screening of the recombinant in vitro library described above are analyzed by flow cytometry for binding to human ROR1 on HEK293-ROR1 cells. Briefly, cultured cells are harvested, counted and cell viability is evaluated using the Trypan Blue exclusion method. Viable cells are then adjusted to 2×10⁶ cells per ml in BSA-containing FACS Stain Buffer (BD Biosciences). 90 μl of this cell suspension are further aliquoted per well into a round-bottom 96-well plate. 10 μl of the anti-ROR1 antibodies or corresponding IgG control are added to the cell-containing wells to obtain final concentrations of 0.1 pM to 200 nM. All constructs and control IgG are used at the same molarity. […] The samples are resuspended in 200 μl/well FACS Stain Buffer and acquired and analyzed using an LSR II flow cytometer with FACSDiva® software (BD Biosciences). The mean fluorescence intensity (MFI) is plotted as a function of anti-ROR1 antibody concentration to obtain the binding curve and to calculate the effective antibody concentration to reach 50% of maximal binding (EC₅₀). […]
c) ROR1 expression was then assessed on B lymphocyte myeloma RPMI8226 cell lines by flow cytometry, using the methods described above.

[2] = biological target: T2, human CD3ε (human, UniProt P07766 23-207); assay: flow cytometry on Jurkat T cells expressing human CD3
T2 construct: whole, on cells; On Jurkat cells as part of the TCR/CD3 complex; also called CD3 epsilon
T2 sequence (P07766 23-207): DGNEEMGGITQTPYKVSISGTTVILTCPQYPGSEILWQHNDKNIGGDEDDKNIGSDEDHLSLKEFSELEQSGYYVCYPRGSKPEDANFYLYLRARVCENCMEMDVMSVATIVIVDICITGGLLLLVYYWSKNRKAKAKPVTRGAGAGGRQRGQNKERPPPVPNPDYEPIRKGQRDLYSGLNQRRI
Method: a) Anti-ROR1/anti-CD3 T cell bispecific antibodies generated in Example 3 were also analyzed by flow cytometry for their binding properties to human ROR1 expressed on primary B-CLL cells or human CD3 expressed on human leukemic T cells Jurkat (ATCC TIB-152). Jurkat T cells were cultured in RPMI supplemented with 10% fetal calf serum. Briefly, cultured cells were harvested, counted and cell viability was evaluated using ViCell. Viable cells were then adjusted to 2×10⁶ cells per ml in FACS Stain Buffer (BD Biosciences) containing 0.1% BSA. 100 μl of this cell suspension were further aliquoted per well into a round-bottom 96-well plate. […] After incubation for 30 min at 4° C., cells were centrifuged (5 min, 350×g), washed twice with 150 μl/well BSA-containing FACS Stain Buffer (BD Biosciences), then cells were fixed using 100 ul BD Fixation buffer per well (#BD Biosciences, 554655) at 4° C. for 20 min, resuspended in 120 μl FACS buffer and analyzed using BD FACS CantoII. Binding of the anti-ROR1/anti-CD3 T cell bispecific antibodies to B-CLL cells and T cells were evaluated and the mean fluorescence intensity was determined gated on either ROR1-expressing B-CLL cells or CD3-expressing Jurkat T cells and plotted in histograms or dot plots. […]

T1 sequence (Q01973 30-937): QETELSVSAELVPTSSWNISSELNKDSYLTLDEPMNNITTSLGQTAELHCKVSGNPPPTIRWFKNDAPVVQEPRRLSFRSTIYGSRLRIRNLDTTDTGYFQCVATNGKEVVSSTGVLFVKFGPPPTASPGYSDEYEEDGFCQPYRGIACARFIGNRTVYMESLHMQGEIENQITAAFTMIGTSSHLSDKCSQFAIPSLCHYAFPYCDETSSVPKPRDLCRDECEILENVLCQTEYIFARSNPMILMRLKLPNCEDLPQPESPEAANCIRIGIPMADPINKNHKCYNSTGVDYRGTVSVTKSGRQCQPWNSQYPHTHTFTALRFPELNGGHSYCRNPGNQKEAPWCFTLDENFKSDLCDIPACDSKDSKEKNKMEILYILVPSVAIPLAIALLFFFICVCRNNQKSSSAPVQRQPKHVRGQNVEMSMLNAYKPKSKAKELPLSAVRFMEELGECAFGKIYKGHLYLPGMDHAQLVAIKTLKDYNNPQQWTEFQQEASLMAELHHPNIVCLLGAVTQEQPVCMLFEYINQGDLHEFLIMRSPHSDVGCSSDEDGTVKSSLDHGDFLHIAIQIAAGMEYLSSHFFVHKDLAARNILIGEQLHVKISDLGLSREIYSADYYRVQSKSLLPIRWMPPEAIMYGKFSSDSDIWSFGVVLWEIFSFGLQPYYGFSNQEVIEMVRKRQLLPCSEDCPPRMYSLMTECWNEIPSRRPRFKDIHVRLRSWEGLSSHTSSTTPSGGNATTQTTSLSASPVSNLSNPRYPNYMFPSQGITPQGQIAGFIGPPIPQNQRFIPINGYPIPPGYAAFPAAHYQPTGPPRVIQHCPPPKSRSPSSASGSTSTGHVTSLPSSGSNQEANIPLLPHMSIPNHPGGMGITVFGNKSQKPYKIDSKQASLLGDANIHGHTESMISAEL

- EC50 [1]: 0.087 nM and 0.013 µg/mL
- binding result [2]: no binding (tested: 3 nM to 500 nM)
B1: anti-ROR1 IgG1 antibody (antibody, V domains shown)
VH: QEQLVESGGRLVTPGGSLTLSCKASGFDFSAYYMSWVRQAPGKGLEWIATIYPSSGKTYYATWVNGRFTISSDNAQNTVDLQMNSLTAADRATYFCARDSYADDGALFNIWGPGTLVTISS
VL: ELVLTQSPSVSAALGSPAKITCTLSSAHKTDTIDWYQQLQGEAPRYLMQVQSDGSYTKRPGVPDRFSGSSSGADRYLIIPSVQADDEADYYCGADYIGGYVFGGGTQLTVLG
notes: Bivalent human IgG1 kappa; Alexa488-labelled in some assays; also called anti-ROR1 antibody; anti-ROR1 IgG antibody

Reference: patent publication US20160297881A1 (ENGMAB, published 2016)
